Results reported in PMC3830645.
One block for each binder: values may come before it.

Key:
[1] = biological target: EGF/tEGFR: purified tail-truncated EGFR (aa 25–1022) with EGF, solubilized in detergent or reconstituted in nanodiscs
[2] = biological target: EGF/tEGFR: purified tail-truncated EGFR (aa 25–1022) with EGF, solubilized in detergent or reconstituted in nanodiscs; remark: listed apart in the source

IC50 of inhibition of EGFR (tEGFR) kinase activity [1]: > 3000 nM
B1: unligated GST-Mig6 (aa 336–391) (domain or fragment)
chain: KSLPSYLNGVMPPTQSFAPDPKYVSSKALQRQNSEGSASKVPCILPIIENGKKVPG

IC50 of inhibition of tEGFR kinase activity [2]: 740 nM
B2: His6-Mig6 segment 1+2 (aa 336–412) mutant Y394E (domain or fragment)
chain: KSLPSYLNGVMPPTQSFAPDPKYVSSKALQRQNSEGSASKVPCILPIIENGKKVSSTHEYLLPERPPYLDKYEKFFR
